Laboratory results: IntAct's records for PubMed 16461343

B1: Tyrosine-protein phosphatase non-receptor type 22 (Homo sapiens), Q9Y2R2 (parent)
chain: MDQREILQKFLDEAQSKKITKEEFANEFLKLKRQSTKYKADKTYPTTVAEKPKNIKKNRYKDILPYDYSRVELSLITSDEDSSYINANFIKGVYGPKAYIATQGPLSTTLLDFWRMIWEYSVLIIVMACMEYEMGKKKCERYWAEPGEMQLEFGPFSVSCEAEKRKSDYIIRTLKVKFNSETRTIYQFHYKNWPDHDVPSSIDPILELIWDVRCYQEDDSVPICIHCSAGCGRTGVICAIDYTWMLLKDGIIPENFSVFSLIREMRTQRPSLVQTQEQYELVYNAVLELFKRQMDVIRDKHSGTESQAKHCIPEKNHTLQADSYSPNLPKSTTKAAKMMNQQRTKMEIKESSSFDFRTSEISAKEELVLHPAKSSTSFDFLELNYSFDKNADTTMKWQTKAFPIVGEPLQKHQSLDLGSLLFEGCSNSKPVNAAGRYFNSKVPITRTKSTPFELIQQRETKEVDSKENFSYLESQPHDSCFVEMQAQKVMHVSSAELNYSLPYDSKHQIRNASNVKHHDSSALGVYSYIPLVENPYFSSWPPSGTSSKMSLDLPEKQDGTVFPSSLLPTSSTSLFSYYNSHDSLSLNSPTNISSLLNQESAVLATAPRIDDEIPPPLPVRTPESFIVVEEAGEFSPNVPKSLSSAVKVKIGTSLEWGGTSEPKKFDDSVILRPSKSVKLRSPKSELHQDRSSPPPPLPERTLESFFLADEDCMQAQSIETYSTSYPDTMENSTSSKQTLKTPGKSFTRSKSLKILRNMKKSICNSCPPNKPAESVQSNNSSSFLNFGFANRFSKPKGPRNPPPTWNI

Key:
[1] = variants of: B1; conditions: with lck_human LCK
[2] = variants of: B1; conditions: with zap70_human ZAP70, P43403
[3] = variants of: B1; conditions: with cd3z_human CD247, P20963

Measured: effect of a mutation on the interaction

Sequence of zap70_human ZAP70, P43403 (P43403 whole entry): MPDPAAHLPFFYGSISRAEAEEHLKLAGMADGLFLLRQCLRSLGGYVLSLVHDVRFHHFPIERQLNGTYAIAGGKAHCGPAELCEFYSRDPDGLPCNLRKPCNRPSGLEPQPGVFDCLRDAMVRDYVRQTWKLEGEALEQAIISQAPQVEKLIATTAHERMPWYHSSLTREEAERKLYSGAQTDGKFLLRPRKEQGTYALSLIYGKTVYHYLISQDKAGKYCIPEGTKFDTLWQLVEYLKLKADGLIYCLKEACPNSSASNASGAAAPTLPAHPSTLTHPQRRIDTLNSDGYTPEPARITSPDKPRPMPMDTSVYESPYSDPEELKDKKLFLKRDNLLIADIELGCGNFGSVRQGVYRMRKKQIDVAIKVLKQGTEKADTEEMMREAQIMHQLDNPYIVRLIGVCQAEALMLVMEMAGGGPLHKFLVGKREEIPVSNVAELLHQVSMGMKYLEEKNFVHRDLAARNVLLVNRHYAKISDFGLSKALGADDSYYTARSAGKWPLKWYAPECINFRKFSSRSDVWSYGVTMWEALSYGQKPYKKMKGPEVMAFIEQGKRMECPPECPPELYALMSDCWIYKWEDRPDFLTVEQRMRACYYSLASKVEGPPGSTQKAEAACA
Sequence of cd3z_human CD247, P20963 (P20963 whole entry): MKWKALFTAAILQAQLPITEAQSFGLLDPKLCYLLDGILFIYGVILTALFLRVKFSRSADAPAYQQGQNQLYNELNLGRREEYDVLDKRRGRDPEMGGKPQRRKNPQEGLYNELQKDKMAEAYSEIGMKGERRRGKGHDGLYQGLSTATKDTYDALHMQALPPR

D195A
increasing interaction: all assays above

C227S
increasing interaction: all assays above
